Measurements as given in article doi:10.1101/2025.03.24.644901, “Substrate recognition by human separase” (bioRxiv, 2025).

Biological target: T1, inactive apo-separase (separase^C2029S) (human, UniProt Q14674 1-2120, C2029S)
T1 construct: human separase, aa 1-2120, catalytic cysteine replaced with serine; AIL1 and the autocleavage sites are intact in this construct; also called apo-separase^C2029S; source: Sf9 (baculovirus), purified (StrepTactin, heparin, Superose 6)
Test: fluorescence polarisation; FlAsH-labelled MBP-SCC1 fragment as probe, inactive separase added; 25 mM HEPES pH 8.0, 100 mM NaCl, 0.1 mg/ml BSA, 0.01% NP40; 25°C; One Site-Total non-linear fit; three repeats
Conditions: both partners purified

T1 sequence (Q14674 whole entry C2029S, the tested form may be a part): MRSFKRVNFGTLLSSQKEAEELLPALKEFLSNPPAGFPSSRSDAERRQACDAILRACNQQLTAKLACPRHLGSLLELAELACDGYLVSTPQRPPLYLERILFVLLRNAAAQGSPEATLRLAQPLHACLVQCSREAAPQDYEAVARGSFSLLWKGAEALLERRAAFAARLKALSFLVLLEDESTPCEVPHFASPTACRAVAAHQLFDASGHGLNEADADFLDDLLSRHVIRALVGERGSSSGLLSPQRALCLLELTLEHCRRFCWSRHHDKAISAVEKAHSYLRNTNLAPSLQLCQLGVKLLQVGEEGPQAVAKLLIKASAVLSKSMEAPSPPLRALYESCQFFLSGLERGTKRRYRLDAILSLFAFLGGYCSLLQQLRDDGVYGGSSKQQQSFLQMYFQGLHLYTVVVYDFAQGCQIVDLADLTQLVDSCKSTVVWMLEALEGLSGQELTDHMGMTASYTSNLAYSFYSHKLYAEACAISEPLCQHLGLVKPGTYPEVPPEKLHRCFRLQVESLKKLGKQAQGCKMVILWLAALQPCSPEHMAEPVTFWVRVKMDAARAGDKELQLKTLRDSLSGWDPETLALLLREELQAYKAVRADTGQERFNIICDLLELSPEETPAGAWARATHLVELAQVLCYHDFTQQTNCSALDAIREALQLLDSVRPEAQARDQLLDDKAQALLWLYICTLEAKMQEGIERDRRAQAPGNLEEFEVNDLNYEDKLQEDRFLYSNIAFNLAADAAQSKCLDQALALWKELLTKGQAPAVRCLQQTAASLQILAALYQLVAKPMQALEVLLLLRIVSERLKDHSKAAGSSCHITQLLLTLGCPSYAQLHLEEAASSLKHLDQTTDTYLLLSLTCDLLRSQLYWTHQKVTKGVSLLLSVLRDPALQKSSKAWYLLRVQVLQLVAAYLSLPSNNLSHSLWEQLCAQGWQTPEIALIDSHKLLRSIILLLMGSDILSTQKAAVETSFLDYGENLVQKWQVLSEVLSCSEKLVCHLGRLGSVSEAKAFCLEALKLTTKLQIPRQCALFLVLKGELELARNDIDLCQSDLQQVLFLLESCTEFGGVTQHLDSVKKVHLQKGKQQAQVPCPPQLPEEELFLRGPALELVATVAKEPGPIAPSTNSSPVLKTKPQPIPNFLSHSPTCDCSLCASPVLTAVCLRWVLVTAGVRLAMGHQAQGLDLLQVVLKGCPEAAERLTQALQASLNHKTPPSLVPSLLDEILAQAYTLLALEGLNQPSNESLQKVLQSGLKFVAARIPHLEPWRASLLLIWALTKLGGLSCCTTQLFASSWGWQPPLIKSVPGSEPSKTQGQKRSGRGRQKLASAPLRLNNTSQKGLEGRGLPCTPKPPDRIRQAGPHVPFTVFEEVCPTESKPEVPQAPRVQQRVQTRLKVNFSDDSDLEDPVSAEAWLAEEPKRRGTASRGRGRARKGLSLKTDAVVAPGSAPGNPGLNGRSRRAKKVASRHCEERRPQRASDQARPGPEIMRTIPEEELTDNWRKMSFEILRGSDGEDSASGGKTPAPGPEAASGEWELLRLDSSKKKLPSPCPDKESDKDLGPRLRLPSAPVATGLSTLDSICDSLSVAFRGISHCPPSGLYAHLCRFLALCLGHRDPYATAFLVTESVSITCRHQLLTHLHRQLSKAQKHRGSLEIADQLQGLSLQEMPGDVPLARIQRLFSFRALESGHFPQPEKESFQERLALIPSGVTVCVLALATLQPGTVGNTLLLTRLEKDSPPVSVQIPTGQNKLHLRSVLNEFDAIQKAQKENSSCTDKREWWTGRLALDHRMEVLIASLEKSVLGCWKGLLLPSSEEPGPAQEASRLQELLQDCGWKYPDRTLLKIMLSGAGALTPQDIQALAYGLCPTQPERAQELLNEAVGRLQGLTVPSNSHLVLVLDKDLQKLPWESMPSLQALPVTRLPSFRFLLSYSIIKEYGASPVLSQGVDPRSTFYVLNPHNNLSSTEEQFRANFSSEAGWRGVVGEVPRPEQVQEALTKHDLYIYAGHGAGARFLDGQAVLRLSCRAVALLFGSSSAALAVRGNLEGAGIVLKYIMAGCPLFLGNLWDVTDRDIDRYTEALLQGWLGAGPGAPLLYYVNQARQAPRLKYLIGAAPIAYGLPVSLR

B1: MBP-SCC1 (aa 350-550) with C-terminal tetracysteine motif, FlAsH-labelled (domain or fragment, human, UniProt O60216 350-550, looked up)
chain: TLDLAPPTKKLMMWKETGGVEKLFSLPAQPLWNNRLLKLFTRCLTPLVPEDLRKRRKGGEADNLDEFLKEFENPEVPREDQQQQHQQRDVIDEPIIEEPSRLQESVMEASRTNIDESAMPPPPPQGVKRKAGQIDPEPVMPPQQVEQMEIPPVELPPEEPPNICQLIPELELLPEKEKEKEKEKEDDEEEEDEDASGGDQD
modifications: FlAsH-EDT2 fluorescent dye on the C-terminal tetracysteine motif
notes: human SCC1/RAD21, aa 350-550 (holds cleavage site 2, R427); also called SCC1^350–550; SCC1 site 2 (aa 350-550); source: E. coli BL21 (DE3), purified (Hitrap MBP, Superdex 200); not shown: 6xHis-MBP, N-terminal, kept
binding result: binds
